The results in this text go back to article PMC4202109.

This experiment deals with Fluorescently labeled ATS (intracellular segment) of PfEMP1 variant PF08_0141, full-length segment (P. falciparum). Kind of experiment: fluorescence polarisation. Background: Fluorescence polarisation rises when a labelled molecule tumbles more slowly, as on binding a larger partner.

A word on the Kd: it is the equilibrium constant for the complex coming apart. The substance “PFE1605w PHIST domain (residues 122–335) (domain or fragment)” displayed an equilibrium dissociation constant (Kd) of 5 µM.
